Data: PMC5993284, “Peptide inhibitors of the anaphase promoting-complex that cause sensitivity to microtubule poison” (PLoS ONE, 2018)
Entries after “also recorded” stand apart in the source; their conditions may differ. Ends that are not written are not given here. * marks the point of attachment. Biotin = O=C1N[C@H]2[C@H](CS[C@H]2CCCCC(=O)*)N1

Legend:
APC/C^Cdh1 = APC/C^Cdh1 enzyme assay (ubiquitination of 35S-Pds1); assay type: biochemical, Saccharomyces cerevisiae; settings: 220 μM peptide; 35S-Pds1 substrate; time course 0-60 minutes; vs buffer; n = 3
Description: Full-length, radio-labeled protein purifications were preformed as previously described. ^35S-Pds1 was prepared in a 500 μL IVT/T (In Vitro Transcription/Translation) reaction (Promega, USA), which contained 400 μL rabbit reticulocyte lysate, 20 μL of L-^35S-methionine (PerkinElmer, USA), 10 μg of plasmid DNA, and the remaining volume as nuclease-free ddH2O as recommended by the manufacturer. The reaction mixture was incubated for 2 hours at room temperature and gently mixed every 30 minutes. The reaction was added to pre-equilibrated IgG Sepharose beads (GE Healthcare, USA) in Bio-spin disposable chromatography columns (Bio-Rad, USA) for binding for 2 hours at room temperature. To ensure efficient binding, the beads were re-suspended several times every 30 minutes. After binding, the beads were washed with 5 mL wash buffer, containing 200 mM 4-(2-hydroxyethyl)-1-piperazineethanesulfonic acid (HEPES) at pH 8.0, 150 mM NaCl, 10% (v/v) glycerol, and 1 mM dithiothreitol (DTT). The ^35S-Pds1 was cleaved from the beads using TEV (Tobacco Etch Virus) protease in 1x TEV buffer (Invitrogen, USA) for 2 hours at room temperature, and the mixture was re-suspended several times every 30 minutes to promote efficient cleavage. The elution was collected and concentrated by employing an Amicon Ultra filter column (Millipore, Ireland). The concentrated ^35S-Pds1 was collected in a new tube, and stored at -20 °C.
The production of Cdc20 or Cdh1 was prepared by IVT/T reactions, where 16 μL of rabbit reticulocyte lysate, 20 μM L-methionine, 0.4 μg of plasmid DNA, and a volume of nuclease-free ddH2O for a total volume of 20 μL. This freshly synthesized Cdc20 or Cdh1 protein was used directly in all APC/C assays after a 1-hour synthesis reaction at room temperature. The APC/C was purified for enzyme assays from 1 mL of TAP-tagged Cdc16 yeast extract (SCSY51) where extract was mixed with 50 μL 50:50 slurry magnetic beads (Invitrogen, Norway) for 2 hours at 4 °C. After incubation, the beads were washed with 3 mL APC/C wash buffer (200 mM of HEPES, 150 mM of NaCl and 10% (v/v) of glycerol). APC/C bound to IgG magnetic beads was used directly in the enzyme assays.
APC/C assays were performed by adding the reaction contents in following order: 4.3 μL of QAH buffer, 20 μL of rabbit reticulocyte lysate containing Cdc20 or Cdh1 with or without an additional volume of recombinant checkpoint protein(s) or inhibitor peptides, 2.4 μL ubiquitin aldehyde (Boston Biochem, USA), APC/C, 16 μL pre-charged E1/E2/ATP/ubiquitin mix, and 13.3 μL of ^35S-Pds1 with QAH buffer (20 mM HEPES at pH 8.0, 100 mM NaCl, and 1 mM MgCl2). […]

[1] = test system: APC/C - co-factor Cdc20 interaction; assay: Co-factor Cdc20 binding to APC/C (35S-Cdc20, APC/C on IgG beads); parameters: species or system Saccharomyces cerevisiae; settings: 220 μM peptide, 1 hour, n = 3, vs buffer only
Description: (§1) One potential mechanism by which Cdc20-derived peptides and Tyc1 inhibit APC/C may be by blocking and/or disrupting the association between the co-factors Cdc20 and Cdh1 and the APC/C holo-enzyme. To test this hypothesis we produced radio-labeled full-length Cdc20 and Cdh1 co-factors by IVT/T and then incubated them with 220 μM Tyc1, DQ36 or PQ65 and APC/C that had been isolated from mitotic yeast extracts on IgG beads. Unbound peptide was washed away, and the amount of the remaining APC/C bound Cdc20 or Cdh1 was quantified. […] These observations indicate that Tyc1 and Mad2-binding motif peptides inhibit APC/C via a similar mechanism, leading to the disruption of the co-factor-APC/C interaction. This similar mechanism of action predicts that co-ever expression of Tyc1 and a Mad2-binding motif peptide in vivo would likely increase a cell’s sensitivity to microtubule poison.
(§2) Fig 14 Mad2-binding motif peptides and Tyc1 disrupt co-factor binding to APC/C and display an additive phenotype for microtubule poison sensitivity when co-ever expressed. A) ^35S-Methionine radio-labeled full-length Cdc20 or Cdh1 were made by IVT/T and pre-incubated with buffer only as a control, or Tyc1, DQ36 or PQ65 at a final concentration of 220 μM. […] The amount of APC/C-bound co-factor was measured by phosphor-imaging (n = 3). […]

[2] = test system: APC/C - co-factor Cdh1 interaction; assay: Co-factor Cdh1 binding to APC/C (35S-Cdh1, APC/C on IgG beads); parameters: species or system Saccharomyces cerevisiae; settings: 220 μM peptide, 1 hour, n = 3, vs buffer only
Description: as §1, §2

Molecule: DQ36-mut1: DQ36-mut1 where all 5 RILQY residues were changed to alanine AAAAA (Biotin-DMNKAAAAAMPEPPKCSSLRQKSYIMKKRTHYSYQQ)
- inhibition of APC/C^Cdh1 activity (in words) (APC/C^Cdh1): displayed a similar loss in the ability to inhibit this APC/C^Cdh1 enzyme activity relative to wild type DQ36

B1: PQ65: 65 amino acid residue peptide called PQ65 (Cdc20 169–232) (peptide, UniProt P26309 169-232, looked up, fragment)
chain: PPNASPISHLRAQTKIVFKQNVAEACGLDMNKRILQYMPEPPKCSSLRQKSYIMKKRTHYSYQQ
- inhibition of APC/C^Cdh1 activity (in words) (APC/C^Cdh1): observed to inhibit APC/C^Cdh1; also recorded: a significant level of APC/C^Cdh1 inhibition was observed
- amount of APC/C bound co-factor Cdc20 (in words) [1]: caused a significant decrease in the amount of APC/C bound co-factor Cdc20 and Cdh1
- amount of APC/C bound co-factor Cdh1 (in words) [2]: caused a significant decrease in the amount of APC/C bound co-factor Cdc20 and Cdh1
